Data from US20080293081A1, “Fluorescence Polarization Assays for Acetyltransferase/Deacetylase Activity” (Sirtris Pharmaceuticals, Inc., priority 2005, published 2008).
No end group written: not given here.

Assays:
Sirt2 = target: T1, Sirt2 (Homo sapiens, UniProt Q8IXJ6); conditions: Km of NAD with the named peptide substrate; Sirt2, FRET, Marcotte et al.; cited from earlier work
T1 sequence (Q8IXJ6 1-389): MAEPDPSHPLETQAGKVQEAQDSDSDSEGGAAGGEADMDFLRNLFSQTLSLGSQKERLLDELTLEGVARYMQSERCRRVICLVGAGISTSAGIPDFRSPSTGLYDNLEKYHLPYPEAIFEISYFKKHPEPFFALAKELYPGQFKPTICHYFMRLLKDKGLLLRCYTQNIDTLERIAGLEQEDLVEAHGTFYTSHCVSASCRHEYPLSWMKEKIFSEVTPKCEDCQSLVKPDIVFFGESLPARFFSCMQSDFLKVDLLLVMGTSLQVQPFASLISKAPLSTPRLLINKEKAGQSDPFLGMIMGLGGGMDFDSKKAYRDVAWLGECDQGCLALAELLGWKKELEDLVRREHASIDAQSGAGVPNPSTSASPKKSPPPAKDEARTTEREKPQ

SIRT1 = target: T2, SIRT1 (Homo sapiens, UniProt Q96EB6); conditions: Km of NAD with the named peptide substrate; Sirt1, FRET, Marcotte et al.; cited from earlier work
T2 sequence (Q96EB6 1-747): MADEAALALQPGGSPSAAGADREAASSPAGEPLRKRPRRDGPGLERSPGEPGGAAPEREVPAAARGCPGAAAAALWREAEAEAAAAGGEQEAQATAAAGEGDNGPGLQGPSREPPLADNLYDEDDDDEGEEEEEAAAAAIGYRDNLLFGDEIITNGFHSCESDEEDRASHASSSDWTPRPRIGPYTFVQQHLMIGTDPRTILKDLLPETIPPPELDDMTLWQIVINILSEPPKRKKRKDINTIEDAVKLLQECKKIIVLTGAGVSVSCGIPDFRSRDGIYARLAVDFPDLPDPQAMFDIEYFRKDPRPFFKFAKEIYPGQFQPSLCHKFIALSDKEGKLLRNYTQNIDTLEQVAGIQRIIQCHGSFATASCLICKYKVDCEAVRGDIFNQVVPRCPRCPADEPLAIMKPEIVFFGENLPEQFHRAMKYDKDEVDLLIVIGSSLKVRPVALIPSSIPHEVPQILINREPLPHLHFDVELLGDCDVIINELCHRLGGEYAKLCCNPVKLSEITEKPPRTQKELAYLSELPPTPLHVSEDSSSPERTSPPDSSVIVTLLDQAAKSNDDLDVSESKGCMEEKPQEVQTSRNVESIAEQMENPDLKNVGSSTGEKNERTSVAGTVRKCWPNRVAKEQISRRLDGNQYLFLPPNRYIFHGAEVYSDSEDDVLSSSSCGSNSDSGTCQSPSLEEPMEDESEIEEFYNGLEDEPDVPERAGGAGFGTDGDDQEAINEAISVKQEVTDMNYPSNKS

[1] = target: T3, Biotin-Nle-PSD-K(Ac)-TIGG-K(MR121)-NH2
T3 chain: XPSDKTIGGK

[2] = target: T4, Ac-EE-K(biotin)-GQSTSSHS-K(Ac)-Nle-STEG-K(5-TMR)-EE-NH2
T4 chain: GQSTSSHSKXSTEGKEE

p53 20 mer (aa 372-387) *FL: p53 20 mer (aa 372-387) peptide substrate with fluorescent label, FRET assay of Marcotte et al. (KKGQSTSRHKKLMFKT; also: fluorescent label, position not given here; UniProt P04637 372-387, looked up, fragment)
Km (Sirt2): 42 µM
Km (SIRT1): 90 µM

B1: Human SIRT2 enzyme (protein)
chain: MAEPDPSHPLETQAGKVQEAQDSDSDSEGGAAGGEADMDFLRNLFSQTLSLGSQKERLLDELTLEGVARYMQSERCRRVICLVGAGISTSAGIPDFRSPSTGLYDNLEKYHLPYPEAIFEISYFKKHPEPFFALAKELYPGQFKPTICHYFMRLLKDKGLLLRCYTQNIDTLERIAGLEQEDLVEAHGTFYTSHCVSASCRHEYPLSWMKEKIFSEVTPKCEDCQSLVKPDIVFFGESLPARFFSCMQSDFLKVDLLLVMGTSLQVQPFASLISKAPLSTPRLLINKEKAGQSDPFLGMIMGLGGGMDFDSKKAYRDVAWLGECDQGCLALAELLGWKKELEDLVRREHASIDAQSGAGVPNPSTSASPKKSPPPAKDEARTTEREKPQ
Peptide Km (uM), fluorescent polarization deacetylase assay [1]: 50 µM

B2: SIRT1 (protein)
chain: MADEAALALQPGGSPSAAGADREAASSPAGEPLRKRPRRDGPGLERSPGEPGGAAPEREVPAAARGCPGAAAAALWREAEAEAAAAGGEQEAQATAAAGEGDNGPGLQGPSREPPLADNLYDEDDDDEGEEEEEAAAAAIGYRDNLLFGDEIITNGFHSCESDEEDRASHASSSDWTPRPRIGPYTFVQQHLMIGTDPRTILKDLLPETIPPPELDDMTLWQIVINILSEPPKRKKRKDINTIEDAVKLLQECKKIIVLTGAGVSVSCGIPDFRSRDGIYARLAVDFPDLPDPQAMFDIEYFRKDPRPFFKFAKEIYPGQFQPSLCHKFIALSDKEGKLLRNYTQNIDTLEQVAGIQRIIQCHGSFATASCLICKYKVDCEAVRGDIFNQVVPRCPRCPADEPLAIMKPEIVFFGENLPEQFHRAMKYDKDEVDLLIVIGSSLKVRPVALIPSSIPHEVPQILINREPLPHLHFDVELLGDCDVIINELCHRLGGEYAKLCCNPVKLSEITEKPPRTQKELAYLSELPPTPLHVSEDSSSPERTSPPDSSVIVTLLDQAAKSNDDLDVSESKGCMEEKPQEVQTSRNVESIAEQMENPDLKNVGSSTGEKNERTSVAGTVRKCWPNRVAKEQISRRLDGNQYLFLPPNRYIFHGAEVYSDSEDDVLSSSSCGSNSDSGTCQSPSLEEPMEDESEIEEFYNGLEDEPDVPERAGGAGFGTDGDDQEAINEAISVKQEVTDMNYPSNKS
Peptide Km (uM), fluorescent polarization deacetylase assay [2]: 7.8 µM
